Ends that are not written are not given here.
What was measured:
[1] = target: T1, refolded recombinant HLA-A*11:01 monomer (peptide-HLA complex) (Homo sapiens, HLA-A*11:01, strain, also: biotinylated in vitro by biotin ligase, peptide-HLA complex); test: ELISA; affinity determination: streptavidin-coated plate, increasing concentrations of biotinylated antigen (16 h) and of primary antibody (8 h), room temperature; goat-anti-human IgG-HRP; conditions: both partners purified
T1 construct: HLA-A*11:01 α chain, human, extracellular portion; human beta-2-microglobulin (β2m); the peptide of the crystallised complex is in PDB 6ID4; The methods describe one preparation (biotinylated) for all HLA monomers; copies: + +
T1 chain 1: not shown
T1 chain 2: not shown
T1 chain 3: AIFQSSMTK

[2] = target: T2, HLA-A*36:01 on One Lambda LABScreen Single Antigen beads (Homo sapiens, HLA-A*36:01, strain); test: One Lambda LABScreen Single Antigen bead assay (OL-SAB), HLA Class I; 2E3-IgG1 at 1 μg mL^−1, diluted 20× in negative control serum; HLA antigens on beads; conditions: both partners purified
T2 construct: HLA-A*36:01 α chain, human; human beta-2-microglobulin; β2m and peptide are surmised for a class I HLA antigen; source: bought: One Lambda Inc. (LABScreen Single Antigen HLA Class I beads); copies: + +

[3] = target: T3, HLA-A*43:01 on One Lambda LABScreen Single Antigen beads (Homo sapiens, HLA-A*43:01, strain); test: as above; conditions: both partners purified
T3 construct: HLA-A*43:01 α chain, human; human beta-2-microglobulin; β2m and peptide are surmised for a class I HLA antigen; source: bought: One Lambda Inc. (LABScreen Single Antigen HLA Class I beads); copies: + +

[4] = target: T4, HLA-A*66:01 on One Lambda LABScreen Single Antigen beads (Homo sapiens, HLA-A*66:01, strain); test: as above; conditions: both partners purified
T4 construct: HLA-A*66:01 α chain, human; has Asp90; human beta-2-microglobulin; β2m and peptide are surmised for a class I HLA antigen; source: bought: One Lambda Inc. (LABScreen Single Antigen HLA Class I beads); copies: + +

[5] = target: T5, HLA-A*80:01 on One Lambda LABScreen Single Antigen beads (Homo sapiens, HLA-A*80:01, strain); test: as above; conditions: both partners purified
T5 construct: HLA-A*80:01 α chain, human; human beta-2-microglobulin; β2m and peptide are surmised for a class I HLA antigen; source: bought: One Lambda Inc. (LABScreen Single Antigen HLA Class I beads); copies: + +

[6] = target: T6, HLA-A*34:02 on One Lambda LABScreen Single Antigen beads (Homo sapiens, HLA-A*34:02, strain); test: as above; conditions: both partners purified
T6 construct: HLA-A*34:02 α chain, human; human beta-2-microglobulin; β2m and peptide are surmised for a class I HLA antigen; source: bought: One Lambda Inc. (LABScreen Single Antigen HLA Class I beads); copies: + +

[7] = target: T7, HLA-A*11:01 on One Lambda LABScreen Single Antigen beads (Homo sapiens, HLA-A*11:01, strain); test: as above; conditions: both partners purified
T7 construct: HLA-A*11:01 α chain, human; human beta-2-microglobulin; β2m and peptide are surmised for a class I HLA antigen; source: bought: One Lambda Inc. (LABScreen Single Antigen HLA Class I beads); copies: + +

[8] = target: T8, HLA-A*01:01 on One Lambda LABScreen Single Antigen beads (Homo sapiens, HLA-A*01:01, strain); test: as above; conditions: both partners purified
T8 construct: HLA-A*01:01 α chain, human; human beta-2-microglobulin; β2m and peptide are surmised for a class I HLA antigen; source: bought: One Lambda Inc. (LABScreen Single Antigen HLA Class I beads); copies: + +

[9] = target: T9, HLA-A*25:01 on One Lambda LABScreen Single Antigen beads (Homo sapiens, HLA-A*25:01, strain); test: as above; conditions: both partners purified
T9 construct: HLA-A*25:01 α chain, human; human beta-2-microglobulin; β2m and peptide are surmised for a class I HLA antigen; source: bought: One Lambda Inc. (LABScreen Single Antigen HLA Class I beads); copies: + +

[10] = target: T10, HLA-B*73:01 on One Lambda LABScreen Single Antigen beads (Homo sapiens, HLA-B*73:01, strain); test: as above; conditions: both partners purified
T10 construct: HLA-B*73:01 α chain, human; human beta-2-microglobulin; β2m and peptide are surmised for a class I HLA antigen; source: bought: One Lambda Inc. (LABScreen Single Antigen HLA Class I beads); copies: + +

[11] = target: T11, HLA-A*26:01 on One Lambda LABScreen Single Antigen beads (Homo sapiens, HLA-A*26:01, strain); test: as above; conditions: both partners purified
T11 construct: HLA-A*26:01 α chain, human; human beta-2-microglobulin; β2m and peptide are surmised for a class I HLA antigen; source: bought: One Lambda Inc. (LABScreen Single Antigen HLA Class I beads); copies: + +

[12] = target: T12, HLA-A*34:01 on One Lambda LABScreen Single Antigen beads (Homo sapiens, HLA-A*34:01, strain); test: as above; conditions: both partners purified
T12 construct: HLA-A*34:01 α chain, human; human beta-2-microglobulin; β2m and peptide are surmised for a class I HLA antigen; source: bought: One Lambda Inc. (LABScreen Single Antigen HLA Class I beads); copies: + +

[13] = target: T1, refolded recombinant HLA-A*11:01 …; test: quartz crystal microbalance (QCM); Attana Cell A200, 25 °C, PBS running buffer; biotinylated refolded HLA-A*11:01 held on a streptavidin-saturated LNB-carboxyl chip; 2E3-IgG1 injected at 2.5 to 20 nM, single cycle kinetics; conditions: both partners purified
[14] = target: T13, HLA-A*11:01 on the surface of HLA-A*11:01-positive EBV-BCLs (Homo sapiens, HLA-A*11:01, strain); test: flow cytometry on cells; 0.5×10^6 EBV-BCLs with 5 μg mL^−1 mouse chimeric 2E3, 4 °C, 2 h, PBS with 3% FBS; AlexaFluor-488 goat-anti-mouse IgG; conditions: one partner purified
T13 construct: HLA-A*11:01 α chain, endogenous on Epstein-Barr virus transformed B-cell lines; human beta-2-microglobulin, endogenous; The cells carry other HLA alleles too; also called A*11:01 homozygous EBV-BCLs; HLA-A*11:01 expressing target cell lines; source: endogenous, on HLA-typed EBV-BCLs; copies: + +

B1: human monoclonal alloantibody 2E3, recombinant human IgG1 (antibody, V domains shown)
VH: EVQLVQSGAEVKKPGASVKVSCKASGYTFTGYYMHWVRQAPGQGLEWMGWINPNSGGTSYAQKFQGRVTMTRDTSTSTVYMELSSLRSEDTAVYYCARVTTVIAGPVFDYWGQGTLVTVSS
VL: QAVLTQPSSLSASPGASASLTCTLRSGINVGPYNIYWYQQKPGSPPQYLMRYKSDPDKHQGSAVPSRFSGSKDASANAGILLISGLQSEDEADYYCMIWHNNAWVFGGGTKLTVL
notes: variable region of the 2E3 heavy chain; constant region of human IgG1 from the heavy chain expression vector; full-length 2E3 light chain; IgG1; isolated from a human Fab phage library (Humanyx) by panning on HLA-A*11:01; also called 2E3-IgG1; source: HEK293, cotransfected, purified from culture supernatants (protein G Sepharose)
Kd [1]: 0.16 nM | binding result [2]: binds | binding result [3]: binds | binding result [4]: binds | binding result [5]: binds | binding result [6]: binds | binding result [7]: binds | binding result [8]: binds | binding result [9]: binds | binding result [10]: binds | binding result [11]: binds | binding result [12]: binds | Kd [13]: 10.3 nM | koff [13]: 0.00033 s⁻¹ | kon [13]: 104000 M⁻¹ s⁻¹

B2: mouse chimeric form of antibody 2E3 (mouse IgG1 constant region) (antibody, V domains shown)
VH: B1 VH
VL: B1 VL
notes: variable region of the 2E3 heavy chain; constant region of mouse IgG1 from the heavy chain expression vector; full-length 2E3 light chain; used for flow cytometry, detected with goat-anti-mouse IgG; also called mouse Fc chimeric antibody; source: HEK293, cotransfected, purified from culture supernatants (protein G Sepharose)
binding result [14]: binds

From PMC6385295 (Nature Communications, 2019)
